PMC7498309

Assays:
[1] = biological target: isolated CARF domain (1–169 aa) of StCsm6 (Streptococcus thermophilus DGCC8004); assay: SEC
[2] = biological target: isolated HEPN domain (172–428 aa) of StCsm6 (Streptococcus thermophilus DGCC8004); assay: SEC

Substance | stoichiometry N [1] | stoichiometry N [2]
isolated CARF domain (1–169 aa) of StCsm6 (domain or fragment) | 2 | –
isolated HEPN domain (172–428 aa) of StCsm6 (domain or fragment) | – | 2
